B1: BPI: bactericidal/permeability-increasing protein, isolated from granules of mammalian polymorphonuclear leukocytes, approximately 55 kD (protein, UniProt P17213 32-487, looked up)
Bactericidal …: VNPGVVVRISQKGLDYASQQGTAALQKELKRIKIPDYSDSFKIKHLGKGHYSFYSMDIREFQLPSSQISMVPNVGLKFSISNANIKISGKWKAQKRFLKMSGNFDLSIEGMSISADLKLGSNPTSGKPTITCSSCSSHINSVHVHISKSKVGWLIQLFHKKIESALRNKMNSQVCEKVTNSVSSELQPYFQTLPVMTKIDSVAGINYGLVAPPATTAETLDVQMKGEFYSENHHNPPPFAPPVMEFPAAHDRMVYLGLSDYFFNTAGLVYQEAGVLKMTLRDDMIPKESKFRLTTKFFGTFLPEVAKKFPNMKIQIHVSASTPPHLSVQPTGLTFYPAVDVQAFAVLPNSSLASLFLIGMHTTGSMEVSAESNRLVGELKLDRLLLELKHSNIGPFPVELLQDIMNYIVPILVLPRVNEKLQKGFPLPTPARVQLYNVVLQPHQNFLLFGADVVYK

Tests used:
[1] = test system: E. coli J5; test: Radial diffusion assay, antibacterial activity; type: cell-based; conditions: order: XMP.284, XMP.13, XMP.391, XMP.366, XMP.353, XMP.406, XMP.407 (most to least)
Procedure: To assess the antibacterial activity of the recombinantly produced peptides, additional experiments are conducted with E. coli J5 or E. coli E104 cells in a radial diffusion assay. For these experiments, cultures of E. coli J5 were grown overnight in TYE broth (15 g tryptone, 10 g yeast extract, 5 g NaCl per liter) and then grown to mid logarithmic phase in TEA broth media (Simon et al., Proc. Nat'l. Acad. Sci. (USA), 51:877-883 (1964)). E. coli J5 cells at 2-3×10^5 cells/mL were added to molten 0.8% agarose containing nutrient broth. Serial dilutions of peptides were prepared in 0.15 M NaCl. Five μl of the diluted peptides, or as a control, saline alone, were added to 3 mm wells prepared in the hardened agarose (5 μl/well). The plates were sealed with parafilm to prevent drying and incubated at 37° C. for 24 hours. Zones of inhibition were measured and the net areas of inhibition determined by subtracting the area comprising the 3 mm well from the area encompassing the 3 mm well plus the inhibition zone. Recombinantly produced peptides are assayed for antibacterial activity and compared to the equivalent synthetic peptides. […] Synthetic peptides XMP.406 and XMP.407 have the same sequences as peptides prepared from the encoded fusion protein described in Example 1, Section 7 and Example 3.

[2] = test system: gram-negative bacteria; conditions: broad range of gram-negative bacteria; Elsbach and Weiss (1992); cited from earlier work
[3] = test system: Staphylococcus aureus (four strains), Staphylococcus epidermidis, Streptococcus faecalis, Bacillus subtilis, Micrococcus lysodeikiticus, and Listeria …; conditions: 10^−6 M or 160 μg/mL; pH of either 7.0 or 5.5; cited from earlier work
[4] = test system: Candida albicans and Candida parapsilosis; conditions: 10^−6 M; pH 7.0 or 5.5; cited from earlier work
[5] = test system: human, rabbit and sheep red blood cells and several human tumor cell lines; conditions: 10^−6 M; cited from earlier work

Molecule	antibacterial activity, rank order of synthetic peptides [1]	concentration at which anti-bacterial activity is exhibited (as low as) [2]	toxic effect on gram-positive organisms [3]	toxic effect on fungi [4]	toxicity to higher eukaryotic cells [5]
XMP.407: BPI 147-162, P @ 147 (S), A @ 153 (W), D @ 162 (I) (PKSKVGALIQLFHKKD)	the least bactericidal	–	–	–	–
XMP.284: BPI 149-161, K @ 152 (G) (SKVKWLIQLFHK)	the most antibacterial activity	–	–	–	–
B1	–	10^−8 to 10^−9 M	no toxic effect	no toxic effect	non-toxic

Reference: patent publication US20020006638A1, “Methods for recombinant microbial production of fusion proteins and BPI-derived peptides” (priority 1998, published 2002)
